Test results as given in patent publication US20180142032A1 (Sanofi, published 2018).
Where a chain is given by its changes, count along the chain named. Numbers in names are those of the source. Like-named read-outs stand apart in the source and are kept apart here.

T1: human LAMP1 at the cell surface (human, UniProt P11279 29-417)
T1 sequence: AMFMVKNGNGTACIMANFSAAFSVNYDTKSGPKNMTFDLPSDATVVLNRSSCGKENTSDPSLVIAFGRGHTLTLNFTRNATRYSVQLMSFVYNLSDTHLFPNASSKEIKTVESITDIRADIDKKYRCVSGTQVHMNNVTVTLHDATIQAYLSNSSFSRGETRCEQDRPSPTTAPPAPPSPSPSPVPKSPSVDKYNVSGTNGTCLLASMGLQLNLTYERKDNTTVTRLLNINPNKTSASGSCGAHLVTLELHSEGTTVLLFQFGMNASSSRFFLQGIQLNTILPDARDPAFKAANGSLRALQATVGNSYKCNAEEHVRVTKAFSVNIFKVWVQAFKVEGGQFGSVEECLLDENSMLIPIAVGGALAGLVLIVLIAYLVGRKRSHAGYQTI

T2: cynomolgus monkey LAMP1 at the cell surface (cynomolgus monkey, UniProt P11279 29-417 (human entry))
T2 construct: also called cynoLAMP1; cynomolgus LAMP1
T2 chain: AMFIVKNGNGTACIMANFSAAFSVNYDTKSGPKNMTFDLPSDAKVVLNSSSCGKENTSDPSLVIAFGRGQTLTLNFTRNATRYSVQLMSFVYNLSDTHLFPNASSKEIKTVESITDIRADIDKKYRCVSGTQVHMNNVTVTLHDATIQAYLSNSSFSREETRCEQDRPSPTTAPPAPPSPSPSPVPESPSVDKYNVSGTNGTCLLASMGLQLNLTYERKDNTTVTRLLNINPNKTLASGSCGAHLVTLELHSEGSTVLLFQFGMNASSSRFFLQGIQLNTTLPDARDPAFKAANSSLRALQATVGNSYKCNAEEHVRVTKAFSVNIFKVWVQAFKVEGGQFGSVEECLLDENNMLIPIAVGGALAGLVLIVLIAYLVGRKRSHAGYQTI

T3: LAMP1::histag (human, UniProt P11279 29-382)
T3 construct: extracellular domain without signal peptide, C-terminal 6 His tag, made in HEK293 cells; also called recombinant human LAMP1; human LAMP1 (29-382)
T3 sequence: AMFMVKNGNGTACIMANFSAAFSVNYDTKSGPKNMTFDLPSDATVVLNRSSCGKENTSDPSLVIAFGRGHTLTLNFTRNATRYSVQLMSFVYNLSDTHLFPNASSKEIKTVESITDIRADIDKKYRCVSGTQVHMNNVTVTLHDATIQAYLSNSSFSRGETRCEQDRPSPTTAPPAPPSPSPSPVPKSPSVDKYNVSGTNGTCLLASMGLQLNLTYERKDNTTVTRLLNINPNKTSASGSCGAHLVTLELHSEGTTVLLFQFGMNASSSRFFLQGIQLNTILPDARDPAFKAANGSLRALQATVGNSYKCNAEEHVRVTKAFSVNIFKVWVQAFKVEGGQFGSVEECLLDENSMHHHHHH

B1: DM4-SPDB-chMAb3 (antibody, human IgG1, kappa, V domains shown)
VH: QIQLVQSGPELKKPGETVKISCKASGYIFTNYGMNWVKQAPGKGLKWMGWINTYTGESRYADDFKGRFALSLETSASTAYLQINNLENEDMATYFCAREDYYGNSPWFFDVWGAGTTVTVSS
VL: DIQMTQTTSSLSASLGDRVTISCRASQGINKYLNWYQQKPDGTVKLLIYYTSTLHSGVPSRFSGSGSGTDYSLTINNLEPEDIATYYCQQYTRLPFTFGSGTKLEIKR
modifications: DM4 linked through SPDB, average DAR 3.7 per antibody; sites not stated
B2: chMAb3_VLR24-R93 (antibody, human IgG1, kappa, V domains shown)
VH: B1 VH
VL: B1 VL
notes: chimeric, human IgG1, Ckappa; VL with N24R and K93R
B3: DM4-SPDB-huMAb1_2 (antibody, human IgG1, kappa, V domains shown)
VH: QVQLVQSGAELVKPGASVKMSCKASGYIFTNYNIHWVKKSPGQGLEWIGAIYPGNGDAPYSQKFQDRATLTADTSSSTTYMELSSLTSEDSAVYYCVRANWDVAFAYWGQGTLVSVSS
VL: DIQMTQSPPSLSASVGGKVTITCKASQDIDRYMAWYQDKPGKGPKLLIHDTSTLQPGIPSRFSGSGSGRDYSFSISNLEPEDIATYYCLQYDNLWTFGGGTKLEIKR
modifications: DM4 linked through SPDB, average DAR 4.05 per antibody; sites not stated
B4: DM4-SPDB-huMAb1_3 (antibody, human IgG1, kappa, V domains shown)
VH: B3 VH with K38R, K39Q, S40A, S61A, D66G, S91T, S115T
VL: B3 VL with P9S, D38Q, I58V, F73L, S74T, N77S
modifications: DM4 linked through SPDB, average DAR 3.5 per antibody; sites not stated
B5: huMAb1_3 (antibody, human IgG1, kappa, V domains shown)
VH: B3 VH with K38R, K39Q, S40A, S61A, D66G, S91T, S115T
VL: B3 VL with P9S, D38Q, I58V, F73L, S74T, N77S
notes: humanized, VH3-huIgG1 and VL3-huCk
B6: chMAb2can (antibody, human IgG1, kappa, V domains shown)
VH: QVQLQQSAAELARPGASVKMSCKASGYTFTSYTMHWVKQRPGQGLEWIGYFNPSSGYPEYNQKFKDKTTLTADKSSNTAFIQLNSLTSEDSAVYYCSRGYYYGSRGYALDFWGQGTSVTVSS
VL: NIVLTQSPASLAVSLGQRATISCRASESVDINGNTFMHWYQQKPGQSPKLLIYAASNLESGVPARFSGSGSGTDFTFTIDPVEADDVATYYCQQNIEDPWTFGGGTKLEIKR
B7: DM4-SPDB-chMAb2 (antibody, human IgG1, kappa, V domains shown)
VH: B6 VH
VL: B6 VL
modifications: DM4 linked through SPDB, average DAR 3.7 per antibody; sites not stated
notes: also called DM4-SPDB-chMAb2can
B8: huMAb1_negB (antibody, human IgG1, kappa)
heavy: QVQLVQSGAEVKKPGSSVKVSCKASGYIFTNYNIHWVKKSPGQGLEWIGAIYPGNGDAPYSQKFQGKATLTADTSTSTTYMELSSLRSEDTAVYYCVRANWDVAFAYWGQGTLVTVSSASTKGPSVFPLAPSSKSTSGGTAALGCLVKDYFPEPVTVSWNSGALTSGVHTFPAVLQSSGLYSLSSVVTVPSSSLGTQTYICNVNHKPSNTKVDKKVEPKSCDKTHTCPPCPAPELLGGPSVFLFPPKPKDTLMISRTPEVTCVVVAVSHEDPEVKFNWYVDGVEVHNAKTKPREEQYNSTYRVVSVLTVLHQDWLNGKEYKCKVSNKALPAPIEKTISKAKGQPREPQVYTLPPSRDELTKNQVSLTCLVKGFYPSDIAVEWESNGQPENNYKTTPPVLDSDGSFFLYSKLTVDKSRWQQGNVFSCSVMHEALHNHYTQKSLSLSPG
light: DIQMTQSPSSLSASVGDRVTITCKASQDIDRYMAWYQDKPGKAPRLLIHDTSTLQSGVPSRFSGSGSGRDYTLTISNLEPEDFATYYCLQYDNLWTFGGGTKVEIKRTVAAPSVFIFPPSDEQLKSGTASVVCLLNNFYPREAKVQWKVDNALQSGNSQESVTEQDSKDSTYSLSSTLTLSKADYEKHKVYACEVTHQGLSSPVTKSFNRGEC
notes: LC1 and HCnegB (VH1-huIgG1_266A, D265A by Kabat)
B9: DM4-SPDB-chMAb1 (antibody, human IgG1, kappa)
heavy: not shown
light: DIQMTQSPPSLSASLGGKVTITCKASQDIDRYMAWYQDKPGKGPRLLIHDTSTLQPGIPSRFSGSGSGRDYSFSISNLEPEDIATYYCLQYDNLWTFGGGTKLEIKRTVAAPSVFIFPPSDEQLKSGTASVVCLLNNFYPREAKVQWKVDNALQSGNSQESVTEQDSKDSTYSLSSTLTLSKADYEKHKVYACEVTHQGLSSPVTKSFNRGEC
modifications: DM4 linked through SPDB, average DAR 4.5 per antibody; sites not stated
notes: antibody drug conjugate of chMAb1; also called chMAb1-SPDB-DM4
B10: huMAb1_2 (antibody, human IgG1, kappa, V domains shown)
VH: B3 VH
VL: B3 VL
notes: humanized, VH2-huIgG1 and VL2-huCk

Columns and labels:
[1] = molecular target: T1, human LAMP1 at the cell surface; assay: cell-based or functional assay
[2] = molecular target: T2, cynomolgus monkey LAMP1 at the cell …; assay: flow cytometry, HEK293 cynoLAMP1 clone 44
[3] = molecular target: T1, human LAMP1 at the cell surface; assay: flow cytometry, HCT116 huLAMP1 clone 8
Experimental: HCT116 cells were infected by a lentiviral vector allowing stable integration of the human or the cynomolgus LAMP1 CDS in genomic DNA of cells. Individual clones with different densities of human or cynomolgus LAMP1 cell surface localization were derived from a pool of HCT116 infected cells. […] 100 μL/well of goat anti-human IgG conjugated with Alexa488 (Invitrogen; # A11013) was added for 1 h at 4° C. and washed two times with PBS 1% BSA. The antibody binding was evaluated after centrifugation and resuspension of cells in 100 μl fixing solution (paraformaldehyde at 4% in PBS). Samples were read using Galaxy® Flow Cytometry System (Partec). EC50 values were estimated using BIOST@T-SPEED software.

[4] = molecular target: T2, cynomolgus monkey LAMP1 at the cell …; assay: flow cytometry
LAMP1::histag [5] = molecular target: T3, LAMP1::histag; assay: SPR (BIAcore 2000), mAb captured by anti-Fc, LAMP1 injected 1 to 256 nM
Experimental: The binding kinetics of the murine, chimer or humanized anti-LAMP1 mAbs were determined by surface plasmon resonance assay using a BIAcore 2000 (BIAcore Inc., Uppsala, N.J.). […] A mouse anti-αhuman Fc IgG1 (BIAcore #BR-1008-39) and rabbit anti-αmurine Fc IgG1 (BIAcore #BR-1008-38) (50 μg/mL in […], pH5) were immobilized on the activated chips in all flow cells. The immobilization was carried out at a flow rate of 10 μL/min up to saturation. The chip was then blocked by injection of 70 μL of ethanolamine-HCl, pH 8.5, followed by one wash with 3 M MgCl₂ for anti-αhuman Fc IgG1 and one wash with 10 mM Glycine-HCl pH 1.7 for anti-αmurine Fc IgG1. To measure the binding of anti-LAMP1 mAbs to LAMP1, antibodies were used at 1-5 μg/mL in BIAcore running buffer (HBS-EP). […] Following completion of the injection phase, dissociation was monitored in a BIAcore running buffer at the same flow rate for 600 sec. […] Individual sensorgrams were analyzed using BIAevaluation software.

[6] = molecular target: T2, cynomolgus monkey LAMP1 at the cell …; assay: flow cytometry, HEK293 cynoLAMP1 clone 44
LAMP1::histag [7] = molecular target: T3, LAMP1::histag; assay: ELISA on secreted human LAMP1
[8] = molecular target: T1, human LAMP1 at the cell surface; assay: cell-based or functional assay; remark: listed apart in the source

Binder	cytotoxicity IC50, HCT116 huLAMP1 clone 8 [1]	EC50 [2]	EC50 [3]	Ratio of EC50s (cynoLAMP1 against huLAMP1) [4]	also measured
B1	0.06 nM	6.1 nM	9.1 nM	0.7	
B2					Kd (LAMP1::histag [5]): 7.2 nM
B3	0.07 nM				
B4	0.12 nM				
B5			10.3 nM		EC50 [6]: 17.7 nM
B6					Kd (LAMP1::histag [5]): 68.8 nM
B7	0.07 nM	12.8 nM	5.5 nM	2.3	
B8					EC50 (LAMP1::histag [7]): 0.07 nM
B9		6.6 nM	6.6 nM	1	Cytotoxic activity IC50 (Cell Titer-Glo), HCT116-LAMP1 clone 5, antigen density 451 000 [8]: 0.2 nM; Cytotoxic activity IC50 (Cell Titer-Glo), HCT116-LAMP1 clone 8, antigen density 160 000 [8]: 0.1 nM
B10			6.6 nM		EC50 [6]: 13.3 nM
